# Assay results published in paper doi:10.64898/2025.12.08.692793 (bioRxiv, 2025).
# Biological target: metabotropic glutamate receptor 2 (mGlu2) (human, UniProt Q14416 19-872)
# Assay: cryo-EM structure
# Sequence of metabotropic glutamate receptor 2 (mGlu2) (Q14416 19-872): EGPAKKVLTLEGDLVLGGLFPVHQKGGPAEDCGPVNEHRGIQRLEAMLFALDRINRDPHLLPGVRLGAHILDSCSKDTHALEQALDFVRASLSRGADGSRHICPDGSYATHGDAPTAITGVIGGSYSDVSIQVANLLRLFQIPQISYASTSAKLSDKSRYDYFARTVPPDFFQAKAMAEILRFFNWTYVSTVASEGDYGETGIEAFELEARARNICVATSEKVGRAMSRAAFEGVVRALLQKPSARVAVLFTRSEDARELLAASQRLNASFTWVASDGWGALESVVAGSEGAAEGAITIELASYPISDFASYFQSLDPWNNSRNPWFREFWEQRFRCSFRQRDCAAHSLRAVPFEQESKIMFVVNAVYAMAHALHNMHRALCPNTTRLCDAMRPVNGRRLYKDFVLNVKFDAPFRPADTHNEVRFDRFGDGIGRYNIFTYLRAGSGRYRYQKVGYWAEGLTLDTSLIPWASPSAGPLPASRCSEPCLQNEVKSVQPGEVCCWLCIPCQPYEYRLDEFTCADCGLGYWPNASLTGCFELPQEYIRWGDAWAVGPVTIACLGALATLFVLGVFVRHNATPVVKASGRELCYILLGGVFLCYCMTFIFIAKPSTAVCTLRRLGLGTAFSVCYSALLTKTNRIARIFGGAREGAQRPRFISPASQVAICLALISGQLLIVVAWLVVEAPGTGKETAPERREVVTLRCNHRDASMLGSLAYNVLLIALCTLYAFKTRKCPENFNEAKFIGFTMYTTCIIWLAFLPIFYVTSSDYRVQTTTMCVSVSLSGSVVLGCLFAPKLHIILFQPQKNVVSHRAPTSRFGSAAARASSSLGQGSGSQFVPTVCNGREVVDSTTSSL
binder,measurement,value
"LPQEYIRW [FTM peptide (Force Transduction Motif, mGlu2 residues 556-563)]",binding result,binds
